Measurements taken from US20120039802A1 (published 2012).

biological target: T1, human cMet expressed on 3T3 cells (human, UniProt P08581 25-1390); test: whole cell phage ELISA, 3T3 human cMet vs 3T3
T1 construct: whole, on cells; cells fixed with glutaraldehyde; also called cell surface-expressed human cMet; 3T3 cells that over-express human cMet
How it was run: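 3T3 cells over-expressing human cMet, compared against parental 3T3, seeded at 10⁵ per well and fixed with 0.1% glutaraldehyde for 12 min at 37 C. Blocked peptide-displaying phage bound for 1 h at room temperature. After PBST washes, bound phage was detected with HRP-conjugated anti-M13 antibody.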

T1 sequence (P08581 25-1390): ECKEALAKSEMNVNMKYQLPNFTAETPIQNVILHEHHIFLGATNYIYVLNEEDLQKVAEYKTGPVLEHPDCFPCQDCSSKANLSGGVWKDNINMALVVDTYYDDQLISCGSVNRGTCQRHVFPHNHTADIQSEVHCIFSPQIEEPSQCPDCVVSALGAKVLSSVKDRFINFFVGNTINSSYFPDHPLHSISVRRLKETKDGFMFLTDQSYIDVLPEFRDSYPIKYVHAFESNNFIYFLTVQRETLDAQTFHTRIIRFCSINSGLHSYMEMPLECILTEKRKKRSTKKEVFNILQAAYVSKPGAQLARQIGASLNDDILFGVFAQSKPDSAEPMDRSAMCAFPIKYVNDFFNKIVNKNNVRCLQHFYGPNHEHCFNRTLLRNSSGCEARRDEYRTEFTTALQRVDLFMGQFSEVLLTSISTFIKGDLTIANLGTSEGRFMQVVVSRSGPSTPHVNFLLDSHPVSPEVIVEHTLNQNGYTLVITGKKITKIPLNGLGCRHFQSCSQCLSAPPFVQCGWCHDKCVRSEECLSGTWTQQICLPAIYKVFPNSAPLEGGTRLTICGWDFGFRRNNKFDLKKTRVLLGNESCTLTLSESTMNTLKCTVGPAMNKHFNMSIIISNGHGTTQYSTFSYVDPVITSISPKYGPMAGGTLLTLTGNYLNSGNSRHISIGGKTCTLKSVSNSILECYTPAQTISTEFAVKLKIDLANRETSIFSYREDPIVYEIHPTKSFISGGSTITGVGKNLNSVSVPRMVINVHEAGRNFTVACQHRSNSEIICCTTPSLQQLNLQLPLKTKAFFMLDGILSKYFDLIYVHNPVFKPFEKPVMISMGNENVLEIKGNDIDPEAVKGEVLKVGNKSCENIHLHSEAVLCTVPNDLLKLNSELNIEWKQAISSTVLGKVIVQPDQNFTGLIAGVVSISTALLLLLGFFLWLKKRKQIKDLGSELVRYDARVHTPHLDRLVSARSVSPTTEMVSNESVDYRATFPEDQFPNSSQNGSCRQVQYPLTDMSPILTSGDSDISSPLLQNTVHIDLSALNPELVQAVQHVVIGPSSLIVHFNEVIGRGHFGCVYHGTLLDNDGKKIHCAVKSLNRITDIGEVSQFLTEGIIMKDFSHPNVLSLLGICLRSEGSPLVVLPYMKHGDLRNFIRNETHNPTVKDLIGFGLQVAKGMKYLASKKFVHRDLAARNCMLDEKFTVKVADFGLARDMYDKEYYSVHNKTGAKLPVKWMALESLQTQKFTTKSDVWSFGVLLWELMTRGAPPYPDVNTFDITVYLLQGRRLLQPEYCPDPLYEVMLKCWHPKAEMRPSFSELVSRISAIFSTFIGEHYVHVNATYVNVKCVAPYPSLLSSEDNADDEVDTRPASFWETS

Going from AGYYHCIDDFPQCKWMGT [482-D02 peptide-displaying phage (SEQ ID NO: 017)] to AQEWEREYFVDGFWGSWFGIPH [130-E10 peptide-displaying phage (SEQ ID NO: 472)], the “WC ELISA (fold over background)” value rises from 1.37 fold to 1.8 fold.

Going from AQDLKPWTAGWEPPWLWTDRGP [104-C09 peptide-displaying phage (SEQ ID NO: 461)] to AQKETWEFFDIVYGSGWKFNSP [116-H02 peptide-displaying phage (SEQ ID NO: 466)], the “WC ELISA (fold over background)” value falls from 1.3 fold to 1.23 fold.

Compared with AQFDRYWHFAWMDVSFSSGQSG [92-B05 peptide-displaying phage (SEQ ID NO: 465)], AQYDTWVFQFIHEVPGELVAMQ (also called linear isolate 94-E08) [94-E08 peptide-displaying phage (SEQ ID NO: 454)] is higher in “WC ELISA (fold over background)” value: 1.2 fold for the first, 1.23 fold for the second.

Compared with AQHWDYDSGSDFWFPVFFLEHH [79-B02 peptide-displaying phage (SEQ ID NO: 475)], AQIQGIQKTEQGEFYWFNWFPA [528-F05 peptide-displaying phage (SEQ ID NO: 450)] is lower in “WC ELISA (fold over background)” value: 1.3 fold for the first, 1.1 fold for the second.

Going from AQNAVVPPPMLWSIYWDYGREG [94-H04 peptide-displaying phage (SEQ ID NO: 457)] to GSYYDCREFQCNKPAP [465-A06 peptide-displaying phage (SEQ ID NO: 002)], the “WC ELISA (fold over background)” value falls from 1.37 fold to 1.33 fold.

Going from AQHGYLSPLKQYQMSHVEFWTY [94-A06 peptide-displaying phage (SEQ ID NO: 476)] to AQMYQTPDGVIGKFVDWMFN [119-F06 peptide-displaying phage (SEQ ID NO: 455)], the “WC ELISA (fold over background)” value rises from 1.17 fold to 1.33 fold.

Compared with AQHQYGQMMVLHIQYDMGEFIP [117-F08 peptide-displaying phage (SEQ ID NO: 462)], AQEWQTWTWNMIEVISENKTP [117-F03 peptide-displaying phage (SEQ ID NO: 468)] is higher in “WC ELISA (fold over background)” value: 1.27 fold for the first, 1.4 fold for the second.

First: AQGFELWVDHTRNFFIAISP [127-A07 peptide-displaying phage (SEQ ID NO: 469)]
Second: AQHSVQRQMDVWMPVQFMAGFT [02-B08 peptide-displaying phage (SEQ ID NO: 467)]
The “WC ELISA (fold over background)” value of the first is lower: 1.2 fold for the first, 1.3 fold for the second.

biological target: T2, cMet-Fc fusion protein (extracellular domain of the cMet receptor expressed as an Fc-fusion protein) (human, UniProt P08581 25-932); test: phage ELISA on cMet-Fc, competitor HGF 100 ng/mL
T2 construct: extracellular domain; also called soluble cMet-Fc-fusion protein; soluble cMet receptor; not shown: Fc part
How it was run: (§1)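 Plates coated with 0.5 μg/mL cMet-Fc, with TRAIL-Fc as background, then blocked with 3% BSA. Bound phage detected with HRP anti-M13 antibody.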

T2 sequence (P08581 25-932): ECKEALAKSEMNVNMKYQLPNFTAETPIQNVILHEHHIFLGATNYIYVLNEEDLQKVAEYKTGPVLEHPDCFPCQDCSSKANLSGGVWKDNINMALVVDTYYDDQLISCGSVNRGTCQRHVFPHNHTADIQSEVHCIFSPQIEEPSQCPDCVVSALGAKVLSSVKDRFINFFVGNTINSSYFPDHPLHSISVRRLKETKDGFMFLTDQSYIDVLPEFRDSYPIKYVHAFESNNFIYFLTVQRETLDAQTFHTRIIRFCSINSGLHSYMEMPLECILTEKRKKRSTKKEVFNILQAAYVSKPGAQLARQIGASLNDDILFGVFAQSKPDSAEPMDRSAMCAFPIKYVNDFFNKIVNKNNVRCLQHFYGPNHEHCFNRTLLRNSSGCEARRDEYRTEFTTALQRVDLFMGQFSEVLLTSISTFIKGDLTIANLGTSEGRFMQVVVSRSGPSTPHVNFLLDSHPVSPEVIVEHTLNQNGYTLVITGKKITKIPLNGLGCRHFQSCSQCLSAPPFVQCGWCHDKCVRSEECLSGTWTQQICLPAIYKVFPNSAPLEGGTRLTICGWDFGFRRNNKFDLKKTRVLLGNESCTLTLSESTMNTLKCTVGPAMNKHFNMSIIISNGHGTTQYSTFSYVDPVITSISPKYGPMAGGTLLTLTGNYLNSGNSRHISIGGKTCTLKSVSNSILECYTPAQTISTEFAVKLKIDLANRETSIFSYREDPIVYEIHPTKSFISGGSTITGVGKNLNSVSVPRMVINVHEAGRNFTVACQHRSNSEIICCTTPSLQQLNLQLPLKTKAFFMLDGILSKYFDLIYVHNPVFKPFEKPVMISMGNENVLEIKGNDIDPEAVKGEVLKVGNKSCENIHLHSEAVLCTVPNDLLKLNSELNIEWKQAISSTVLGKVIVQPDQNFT

First: AGYYHCIDDFPQCKWMGT [482-D02 peptide-displaying phage (SEQ ID NO: 017)]
Second: AQEWEREYFVDGFWGSWFGIPH [130-E10 peptide-displaying phage (SEQ ID NO: 472)]
The “% of binding in the absence of HGF” value of the first is lower: 66% for the first, 100% for the second.

Compared with AQDLKPWTAGWEPPWLWTDRGP [104-C09 peptide-displaying phage (SEQ ID NO: 461)], AQKETWEFFDIVYGSGWKFNSP [116-H02 peptide-displaying phage (SEQ ID NO: 466)] is higher in “% of binding in the absence of HGF” value: 64% for the first, 84% for the second.

First: AQFDRYWHFAWMDVSFSSGQSG [92-B05 peptide-displaying phage (SEQ ID NO: 465)]
Second: AQYDTWVFQFIHEVPGELVAMQ (also called linear isolate 94-E08) [94-E08 peptide-displaying phage (SEQ ID NO: 454)]
The “% of binding in the absence of HGF” value of the first is lower: 94% for the first, 102% for the second.

First: AQHWDYDSGSDFWFPVFFLEHH [79-B02 peptide-displaying phage (SEQ ID NO: 475)]
Second: AQIQGIQKTEQGEFYWFNWFPA [528-F05 peptide-displaying phage (SEQ ID NO: 450)]
The “% of binding in the absence of HGF” value of the first is higher: 102% for the first, 84% for the second.

Compared with AQNAVVPPPMLWSIYWDYGREG [94-H04 peptide-displaying phage (SEQ ID NO: 457)], GSYYDCREFQCNKPAP [465-A06 peptide-displaying phage (SEQ ID NO: 002)] is lower in “% of binding in the absence of HGF” value: 150% for the first, 56% for the second.

First: AQHGYLSPLKQYQMSHVEFWTY [94-A06 peptide-displaying phage (SEQ ID NO: 476)]
Second: AQMYQTPDGVIGKFVDWMFN [119-F06 peptide-displaying phage (SEQ ID NO: 455)]
The “% of binding in the absence of HGF” value of the first is higher: 84% for the first, 4% for the second.

First: AQHQYGQMMVLHIQYDMGEFIP [117-F08 peptide-displaying phage (SEQ ID NO: 462)]
Second: AQEWQTWTWNMIEVISENKTP [117-F03 peptide-displaying phage (SEQ ID NO: 468)]
The “% of binding in the absence of HGF” value of the first is lower: 102% for the first, 104% for the second.

Going from AQGFELWVDHTRNFFIAISP [127-A07 peptide-displaying phage (SEQ ID NO: 469)] to AQHSVQRQMDVWMPVQFMAGFT [02-B08 peptide-displaying phage (SEQ ID NO: 467)], the “% of binding in the absence of HGF” value falls from 101% to 84%.

biological target: T2, cMet-Fc fusion protein (extracellular …); test: phage ELISA, cMet-Fc vs TRAIL-Fc
How it was run: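 Plates coated overnight at 4 C with 0.5 μg/mL cMet-Fc, or TRAIL-Fc as background, were blocked with 3% BSA in PBST. Peptide-displaying phage were bound 2 h at room temperature. Bound phage were detected with HRP-conjugated anti-M13 antibody.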

Compared with AGYYHCIDDFPQCKWMGT [482-D02 peptide-displaying phage (SEQ ID NO: 017)], AQEWEREYFVDGFWGSWFGIPH [130-E10 peptide-displaying phage (SEQ ID NO: 472)] is lower in “Protein ELISA (fold over background)” value: 3.9 fold for the first, 3.7 fold for the second.

Compared with AQDLKPWTAGWEPPWLWTDRGP [104-C09 peptide-displaying phage (SEQ ID NO: 461)], AQKETWEFFDIVYGSGWKFNSP [116-H02 peptide-displaying phage (SEQ ID NO: 466)] is lower in “Protein ELISA (fold over background)” value: 5 fold for the first, 4 fold for the second.

Compared with AQFDRYWHFAWMDVSFSSGQSG [92-B05 peptide-displaying phage (SEQ ID NO: 465)], AQYDTWVFQFIHEVPGELVAMQ (also called linear isolate 94-E08) [94-E08 peptide-displaying phage (SEQ ID NO: 454)] is higher in “Protein ELISA (fold over background)” value: 4.3 fold for the first, 8.9 fold for the second.

Going from AQHWDYDSGSDFWFPVFFLEHH [79-B02 peptide-displaying phage (SEQ ID NO: 475)] to AQIQGIQKTEQGEFYWFNWFPA [528-F05 peptide-displaying phage (SEQ ID NO: 450)], the “Protein ELISA (fold over background)” value rises from 3.5 fold to 4.3 fold.

First: AQNAVVPPPMLWSIYWDYGREG [94-H04 peptide-displaying phage (SEQ ID NO: 457)]
Second: GSYYDCREFQCNKPAP [465-A06 peptide-displaying phage (SEQ ID NO: 002)]
The “Protein ELISA (fold over background)” value of the first is higher: 7 fold for the first, 4.4 fold for the second.

Compared with AQHGYLSPLKQYQMSHVEFWTY [94-A06 peptide-displaying phage (SEQ ID NO: 476)], AQMYQTPDGVIGKFVDWMFN [119-F06 peptide-displaying phage (SEQ ID NO: 455)] is higher in “Protein ELISA (fold over background)” value: 3.5 fold for the first, 8 fold for the second.

First: AQHQYGQMMVLHIQYDMGEFIP [117-F08 peptide-displaying phage (SEQ ID NO: 462)]
Second: AQEWQTWTWNMIEVISENKTP [117-F03 peptide-displaying phage (SEQ ID NO: 468)]
The “Protein ELISA (fold over background)” value of the first is higher: 4.5 fold for the first, 3.8 fold for the second.

First: AQGFELWVDHTRNFFIAISP [127-A07 peptide-displaying phage (SEQ ID NO: 469)]
Second: AQHSVQRQMDVWMPVQFMAGFT [02-B08 peptide-displaying phage (SEQ ID NO: 467)]
The “Protein ELISA (fold over background)” value of the first is lower: 3.8 fold for the first, 3.9 fold for the second.

biological target: T2, cMet-Fc fusion protein (extracellular …); test: phage ELISA on cMet-Fc, competitor HGF 500 ng/mL
How it was run: as §1

Going from AGYYHCIDDFPQCKWMGT [482-D02 peptide-displaying phage (SEQ ID NO: 017)] to AQEWEREYFVDGFWGSWFGIPH [130-E10 peptide-displaying phage (SEQ ID NO: 472)], the “% of binding in the absence of HGF” value rises from 44% to 92%.

Going from AQDLKPWTAGWEPPWLWTDRGP [104-C09 peptide-displaying phage (SEQ ID NO: 461)] to AQKETWEFFDIVYGSGWKFNSP [116-H02 peptide-displaying phage (SEQ ID NO: 466)], the “% of binding in the absence of HGF” value rises from 50% to 72%.

Compared with AQFDRYWHFAWMDVSFSSGQSG [92-B05 peptide-displaying phage (SEQ ID NO: 465)], AQYDTWVFQFIHEVPGELVAMQ (also called linear isolate 94-E08) [94-E08 peptide-displaying phage (SEQ ID NO: 454)] is lower in “% of binding in the absence of HGF” value: 94% for the first, 74% for the second.

Compared with AQHWDYDSGSDFWFPVFFLEHH [79-B02 peptide-displaying phage (SEQ ID NO: 475)], AQIQGIQKTEQGEFYWFNWFPA [528-F05 peptide-displaying phage (SEQ ID NO: 450)] is lower in “% of binding in the absence of HGF” value: 86% for the first, 81% for the second.

Going from AQNAVVPPPMLWSIYWDYGREG [94-H04 peptide-displaying phage (SEQ ID NO: 457)] to GSYYDCREFQCNKPAP [465-A06 peptide-displaying phage (SEQ ID NO: 002)], the “% of binding in the absence of HGF” value falls from 101% to 32%.

First: AQHGYLSPLKQYQMSHVEFWTY [94-A06 peptide-displaying phage (SEQ ID NO: 476)]
Second: AQMYQTPDGVIGKFVDWMFN [119-F06 peptide-displaying phage (SEQ ID NO: 455)]
The “% of binding in the absence of HGF” value of the first is higher: 96% for the first, 27% for the second.

First: AQHQYGQMMVLHIQYDMGEFIP [117-F08 peptide-displaying phage (SEQ ID NO: 462)]
Second: AQEWQTWTWNMIEVISENKTP [117-F03 peptide-displaying phage (SEQ ID NO: 468)]
The “% of binding in the absence of HGF” value of the first is higher: 270% for the first, 93% for the second.

First: AQGFELWVDHTRNFFIAISP [127-A07 peptide-displaying phage (SEQ ID NO: 469)]
Second: AQHSVQRQMDVWMPVQFMAGFT [02-B08 peptide-displaying phage (SEQ ID NO: 467)]
The “% of binding in the absence of HGF” value of the first is higher: 107% for the first, 96% for the second.
